Test results as given in the supplement of paper PMC10065799, “High-throughput profiling of sequence recognition by tyrosine kinases and SH2 domains using bacterial peptide display” (eLife, 2023).
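Note: 11-residue human phosphosite peptides and single-mutation variants displayed on the E. coli surface, counted by deep sequencing, each peptide's frequency after selection divided by its frequency in the unselected input library; frequency after pTyr selection over input frequency; kinase dosed for 20-30% of maximal phosphorylation in three min.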

What follows are sequences tested against Hck (UniProt P08631) (assay: phosphorylation enrichment, bacterial display (enrichment ratio); higher = better substrate or ligand; peptides without Tyr show the background).
Sequence of Hck (P08631 whole entry, looked up): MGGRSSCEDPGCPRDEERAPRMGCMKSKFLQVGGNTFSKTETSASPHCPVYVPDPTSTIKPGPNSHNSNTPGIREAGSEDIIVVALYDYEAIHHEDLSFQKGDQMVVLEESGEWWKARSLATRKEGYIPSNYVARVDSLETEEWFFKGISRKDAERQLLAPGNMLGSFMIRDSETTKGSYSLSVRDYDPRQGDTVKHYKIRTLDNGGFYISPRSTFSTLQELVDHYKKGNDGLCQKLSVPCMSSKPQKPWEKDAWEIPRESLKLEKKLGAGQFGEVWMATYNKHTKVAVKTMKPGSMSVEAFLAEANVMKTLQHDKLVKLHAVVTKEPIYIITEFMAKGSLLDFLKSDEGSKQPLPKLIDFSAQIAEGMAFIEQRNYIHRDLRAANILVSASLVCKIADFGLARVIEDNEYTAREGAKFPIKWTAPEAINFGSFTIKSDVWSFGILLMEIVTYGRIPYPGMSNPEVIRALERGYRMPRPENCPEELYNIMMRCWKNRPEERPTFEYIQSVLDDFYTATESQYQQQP
Work on PESIMYRKFTT [NTRK3_Y744] yielded a phosphorylation enrichment of 0.517.
YLGRDYLETLM [DUS3L_Y610] showed a phosphorylation enrichment of 0.829.
GYSRHCEDGYP [CTNND1_Y217_Y217C] showed a phosphorylation enrichment of 0.5.
In the case of KVWGIYDCQQP [CYP3A7_Y75], the phosphorylation enrichment was 6.28.
HNLDYYKQTTN [FGFR3_Y648_K650Q] was tested, and the phosphorylation enrichment was 0.704.
With LIHLHYIRRDF [BBS4_Y43_K46R_YF] the phosphorylation enrichment was 0.581.
Sequence PLQKTYNFNML [SLC4A1_Y553_V557M_YF] has a phosphorylation enrichment of 0.594.
With YGSGNYNDFGN [HNRNPA2B1_Y300] the phosphorylation enrichment was 0.632.
DGMADYSDPSF [CDC5L_Y459_YF] gave a phosphorylation enrichment of 0.63.
Work on NELTYYCCKKD [CD59_Y87] yielded a phosphorylation enrichment of 3.04.
With IRKAEYPFSSE [ATP2C1_Y452] the phosphorylation enrichment was 0.404.
Work on QMVGMYAFSYM [AVPR2_Y124_S126F] yielded a phosphorylation enrichment of 1.52.
MLEVPYVDRNS [F10_Y384] was tested, and the phosphorylation enrichment was 0.453.
Work on LLQKTYNYNVL [SLC4A1_Y553_P548L] yielded a phosphorylation enrichment of 1.01.
RLSARYFQGDL [PDK3_Y337_Y334S] was tested, and the phosphorylation enrichment was 0.362.
CCNHPYLINGA [CHD7_Y1256] showed a phosphorylation enrichment of 0.519.
For SSFSGYIMMPN [LEF1_Y114_YF], the phosphorylation enrichment was 0.421.
LSAPEYGPKLK [TBC1D14_Y46] showed a phosphorylation enrichment of 0.537.
For IQVNAYFSPIH [ADSL_Y432_D430N], the phosphorylation enrichment was 0.543.
Work on ETDSEYVKLAK [C7orf57_Y70] yielded a phosphorylation enrichment of 0.425.
CEHRGYLFLAI [TEK_Y897_YF] was tested, and the phosphorylation enrichment was 0.45.
Work on QQLVAYYSKHA [SRC_Y232] yielded a phosphorylation enrichment of 0.781.
Work on LADMNYVHCDL [EPHB2_Y742_R745C] yielded a phosphorylation enrichment of 0.469.
Work on QDDYSYPSRQM [LDLR_Y847_G844D] yielded a phosphorylation enrichment of 1.02.
SEKISYVYMKR [SSX7_Y48_L43S] gave a phosphorylation enrichment of 0.479.
TTSQLYDAVPI [PDPK1_Y9] gave a phosphorylation enrichment of 11.5.
SLGSPYGQPPR [PDLIM4_Y137] showed a phosphorylation enrichment of 0.365.
IENKLCGMSDP [RET_Y1062_Y1062C] showed a phosphorylation enrichment of 0.562.
VNYGAYINNFK [GLB1_Y488_D491N] gave a phosphorylation enrichment of 0.631.

These sequences were tested against Jak2 (UniProt O60674) in the same assay as above.
Sequence of Jak2 (O60674 whole entry, looked up): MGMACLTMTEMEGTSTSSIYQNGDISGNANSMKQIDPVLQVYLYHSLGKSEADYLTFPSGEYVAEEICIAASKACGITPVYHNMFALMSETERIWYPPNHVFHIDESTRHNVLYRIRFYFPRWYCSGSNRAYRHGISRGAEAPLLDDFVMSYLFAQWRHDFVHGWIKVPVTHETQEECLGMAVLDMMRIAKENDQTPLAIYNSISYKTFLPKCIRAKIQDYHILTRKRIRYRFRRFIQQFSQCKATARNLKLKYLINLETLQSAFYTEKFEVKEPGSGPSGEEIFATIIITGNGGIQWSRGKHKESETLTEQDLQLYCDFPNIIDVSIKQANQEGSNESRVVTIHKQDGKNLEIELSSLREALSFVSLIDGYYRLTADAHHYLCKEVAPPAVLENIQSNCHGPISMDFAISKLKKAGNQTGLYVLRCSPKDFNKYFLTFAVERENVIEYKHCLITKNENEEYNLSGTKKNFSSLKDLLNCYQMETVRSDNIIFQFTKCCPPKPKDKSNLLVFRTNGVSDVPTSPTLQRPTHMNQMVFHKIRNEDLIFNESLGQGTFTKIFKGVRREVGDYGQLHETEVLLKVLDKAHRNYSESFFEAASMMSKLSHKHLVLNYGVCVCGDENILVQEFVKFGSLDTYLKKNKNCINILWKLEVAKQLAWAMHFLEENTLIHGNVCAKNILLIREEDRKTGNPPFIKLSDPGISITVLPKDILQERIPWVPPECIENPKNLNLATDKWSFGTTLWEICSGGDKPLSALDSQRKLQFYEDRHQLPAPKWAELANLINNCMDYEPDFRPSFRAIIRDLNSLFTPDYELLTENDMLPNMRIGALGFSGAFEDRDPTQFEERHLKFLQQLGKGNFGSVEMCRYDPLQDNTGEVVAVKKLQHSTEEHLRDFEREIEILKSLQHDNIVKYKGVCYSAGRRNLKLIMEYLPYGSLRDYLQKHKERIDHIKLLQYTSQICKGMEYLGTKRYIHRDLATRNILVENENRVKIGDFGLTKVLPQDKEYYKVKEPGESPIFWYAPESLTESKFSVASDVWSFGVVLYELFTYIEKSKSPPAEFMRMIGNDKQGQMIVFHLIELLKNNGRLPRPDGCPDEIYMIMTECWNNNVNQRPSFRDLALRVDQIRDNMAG
Work on PESIMYRKFTT [NTRK3_Y744] yielded a phosphorylation enrichment of 0.666.
With YLGRDYLETLM [DUS3L_Y610] the phosphorylation enrichment was 1.06.
For GYSRHCEDGYP [CTNND1_Y217_Y217C], the phosphorylation enrichment was 0.879.
Work on KVWGIYDCQQP [CYP3A7_Y75] yielded a phosphorylation enrichment of 1.14.
Work on HNLDYYKQTTN [FGFR3_Y648_K650Q] yielded a phosphorylation enrichment of 1.27.
For LIHLHYIRRDF [BBS4_Y43_K46R_YF], the phosphorylation enrichment was 0.972.
PLQKTYNFNML [SLC4A1_Y553_V557M_YF] showed a phosphorylation enrichment of 0.861.
Sequence YGSGNYNDFGN [HNRNPA2B1_Y300] has a phosphorylation enrichment of 0.966.
DGMADYSDPSF [CDC5L_Y459_YF] gave a phosphorylation enrichment of 1.12.
In the case of NELTYYCCKKD [CD59_Y87], the phosphorylation enrichment was 2.83.
In the case of IRKAEYPFSSE [ATP2C1_Y452], the phosphorylation enrichment was 0.594.
With QMVGMYAFSYM [AVPR2_Y124_S126F] the phosphorylation enrichment was 1.44.
Sequence MLEVPYVDRNS [F10_Y384] has a phosphorylation enrichment of 0.789.
LLQKTYNYNVL [SLC4A1_Y553_P548L] gave a phosphorylation enrichment of 0.834.
For RLSARYFQGDL [PDK3_Y337_Y334S], the phosphorylation enrichment was 0.718.
For CCNHPYLINGA [CHD7_Y1256], the phosphorylation enrichment was 0.641.
Sequence SSFSGYIMMPN [LEF1_Y114_YF] has a phosphorylation enrichment of 3.33.
Work on LSAPEYGPKLK [TBC1D14_Y46] yielded a phosphorylation enrichment of 0.409.
With IQVNAYFSPIH [ADSL_Y432_D430N] the phosphorylation enrichment was 2.16.
With ETDSEYVKLAK [C7orf57_Y70] the phosphorylation enrichment was 0.69.
CEHRGYLFLAI [TEK_Y897_YF] gave a phosphorylation enrichment of 1.01.
QQLVAYYSKHA [SRC_Y232] gave a phosphorylation enrichment of 1.3.
LADMNYVHCDL [EPHB2_Y742_R745C] gave a phosphorylation enrichment of 0.728.
QDDYSYPSRQM [LDLR_Y847_G844D] was tested, and the phosphorylation enrichment was 1.74.
With SEKISYVYMKR [SSX7_Y48_L43S] the phosphorylation enrichment was 0.964.
TTSQLYDAVPI [PDPK1_Y9] showed a phosphorylation enrichment of 0.849.
In the case of SLGSPYGQPPR [PDLIM4_Y137], the phosphorylation enrichment was 0.484.
Sequence IENKLCGMSDP [RET_Y1062_Y1062C] has a phosphorylation enrichment of 0.775.
VNYGAYINNFK [GLB1_Y488_D491N] gave a phosphorylation enrichment of 0.932.

These sequences were tested against MERTK (UniProt Q12866) in the same assay as above.
Sequence of MERTK (Q12866 whole entry, looked up): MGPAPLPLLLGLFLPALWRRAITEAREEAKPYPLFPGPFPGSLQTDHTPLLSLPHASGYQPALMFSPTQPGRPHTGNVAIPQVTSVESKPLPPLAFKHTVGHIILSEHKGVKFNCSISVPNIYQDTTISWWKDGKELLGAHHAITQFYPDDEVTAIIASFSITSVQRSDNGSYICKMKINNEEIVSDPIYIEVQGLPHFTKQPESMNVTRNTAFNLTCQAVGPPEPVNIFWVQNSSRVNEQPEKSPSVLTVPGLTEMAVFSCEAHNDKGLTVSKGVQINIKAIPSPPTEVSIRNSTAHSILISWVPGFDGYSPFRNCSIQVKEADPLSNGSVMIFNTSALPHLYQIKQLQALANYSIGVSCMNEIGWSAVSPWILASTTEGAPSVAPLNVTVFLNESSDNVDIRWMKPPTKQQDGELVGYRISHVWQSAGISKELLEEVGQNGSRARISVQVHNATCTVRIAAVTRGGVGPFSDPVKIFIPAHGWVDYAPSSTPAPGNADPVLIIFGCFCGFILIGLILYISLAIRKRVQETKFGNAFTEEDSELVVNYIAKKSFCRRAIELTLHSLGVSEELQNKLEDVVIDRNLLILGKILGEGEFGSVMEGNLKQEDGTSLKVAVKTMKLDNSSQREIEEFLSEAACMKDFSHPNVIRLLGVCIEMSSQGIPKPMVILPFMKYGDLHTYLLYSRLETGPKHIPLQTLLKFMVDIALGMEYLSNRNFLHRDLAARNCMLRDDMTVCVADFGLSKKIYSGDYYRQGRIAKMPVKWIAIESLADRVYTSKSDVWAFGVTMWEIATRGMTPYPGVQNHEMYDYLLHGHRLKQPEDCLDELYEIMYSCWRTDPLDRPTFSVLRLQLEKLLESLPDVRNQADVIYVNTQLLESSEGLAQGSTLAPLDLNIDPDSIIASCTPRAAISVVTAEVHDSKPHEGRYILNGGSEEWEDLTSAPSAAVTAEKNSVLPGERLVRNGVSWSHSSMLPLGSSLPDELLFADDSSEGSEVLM
In the case of PESIMYRKFTT [NTRK3_Y744], the phosphorylation enrichment was 0.616.
For YLGRDYLETLM [DUS3L_Y610], the phosphorylation enrichment was 0.524.
Work on GYSRHCEDGYP [CTNND1_Y217_Y217C] yielded a phosphorylation enrichment of 0.446.
In the case of KVWGIYDCQQP [CYP3A7_Y75], the phosphorylation enrichment was 4.76.
Sequence HNLDYYKQTTN [FGFR3_Y648_K650Q] has a phosphorylation enrichment of 0.658.
LIHLHYIRRDF [BBS4_Y43_K46R_YF] showed a phosphorylation enrichment of 0.419.
For PLQKTYNFNML [SLC4A1_Y553_V557M_YF], the phosphorylation enrichment was 0.582.
For YGSGNYNDFGN [HNRNPA2B1_Y300], the phosphorylation enrichment was 0.501.
DGMADYSDPSF [CDC5L_Y459_YF] gave a phosphorylation enrichment of 0.5.
Work on NELTYYCCKKD [CD59_Y87] yielded a phosphorylation enrichment of 4.45.
In the case of IRKAEYPFSSE [ATP2C1_Y452], the phosphorylation enrichment was 0.341.
QMVGMYAFSYM [AVPR2_Y124_S126F] was tested, and the phosphorylation enrichment was 6.65.
With MLEVPYVDRNS [F10_Y384] the phosphorylation enrichment was 0.317.
LLQKTYNYNVL [SLC4A1_Y553_P548L] gave a phosphorylation enrichment of 0.694.
RLSARYFQGDL [PDK3_Y337_Y334S] was tested, and the phosphorylation enrichment was 0.41.
In the case of CCNHPYLINGA [CHD7_Y1256], the phosphorylation enrichment was 0.461.
Sequence SSFSGYIMMPN [LEF1_Y114_YF] has a phosphorylation enrichment of 0.562.
LSAPEYGPKLK [TBC1D14_Y46] showed a phosphorylation enrichment of 0.383.
For IQVNAYFSPIH [ADSL_Y432_D430N], the phosphorylation enrichment was 0.589.
ETDSEYVKLAK [C7orf57_Y70] showed a phosphorylation enrichment of 0.398.
Sequence CEHRGYLFLAI [TEK_Y897_YF] has a phosphorylation enrichment of 0.37.
Work on QQLVAYYSKHA [SRC_Y232] yielded a phosphorylation enrichment of 0.944.
For LADMNYVHCDL [EPHB2_Y742_R745C], the phosphorylation enrichment was 0.448.
For QDDYSYPSRQM [LDLR_Y847_G844D], the phosphorylation enrichment was 1.13.
SEKISYVYMKR [SSX7_Y48_L43S] showed a phosphorylation enrichment of 0.385.
Work on TTSQLYDAVPI [PDPK1_Y9] yielded a phosphorylation enrichment of 13.
For SLGSPYGQPPR [PDLIM4_Y137], the phosphorylation enrichment was 0.378.
Sequence IENKLCGMSDP [RET_Y1062_Y1062C] has a phosphorylation enrichment of 0.428.
VNYGAYINNFK [GLB1_Y488_D491N] gave a phosphorylation enrichment of 0.429.

These sequences were tested on c-Abl (mouse) in the same assay as above.
Work on PESIMYRKFTT [NTRK3_Y744] yielded a phosphorylation enrichment of 0.777.
For YLGRDYLETLM [DUS3L_Y610], the phosphorylation enrichment was 0.898.
GYSRHCEDGYP [CTNND1_Y217_Y217C] showed a phosphorylation enrichment of 0.928.
With KVWGIYDCQQP [CYP3A7_Y75] the phosphorylation enrichment was 0.998.
HNLDYYKQTTN [FGFR3_Y648_K650Q] showed a phosphorylation enrichment of 0.793.
For LIHLHYIRRDF [BBS4_Y43_K46R_YF], the phosphorylation enrichment was 0.333.
In the case of PLQKTYNFNML [SLC4A1_Y553_V557M_YF], the phosphorylation enrichment was 0.63.
YGSGNYNDFGN [HNRNPA2B1_Y300] was tested, and the phosphorylation enrichment was 0.923.
With DGMADYSDPSF [CDC5L_Y459_YF] the phosphorylation enrichment was 1.04.
NELTYYCCKKD [CD59_Y87] gave a phosphorylation enrichment of 1.48.
In the case of IRKAEYPFSSE [ATP2C1_Y452], the phosphorylation enrichment was 0.454.
QMVGMYAFSYM [AVPR2_Y124_S126F] showed a phosphorylation enrichment of 1.27.
With MLEVPYVDRNS [F10_Y384] the phosphorylation enrichment was 0.611.
LLQKTYNYNVL [SLC4A1_Y553_P548L] was tested, and the phosphorylation enrichment was 0.716.
Sequence RLSARYFQGDL [PDK3_Y337_Y334S] has a phosphorylation enrichment of 0.649.
Work on CCNHPYLINGA [CHD7_Y1256] yielded a phosphorylation enrichment of 0.538.
In the case of SSFSGYIMMPN [LEF1_Y114_YF], the phosphorylation enrichment was 0.603.
Sequence LSAPEYGPKLK [TBC1D14_Y46] has a phosphorylation enrichment of 0.456.
For IQVNAYFSPIH [ADSL_Y432_D430N], the phosphorylation enrichment was 1.14.
Sequence ETDSEYVKLAK [C7orf57_Y70] has a phosphorylation enrichment of 0.588.
CEHRGYLFLAI [TEK_Y897_YF] gave a phosphorylation enrichment of 0.813.
In the case of QQLVAYYSKHA [SRC_Y232], the phosphorylation enrichment was 0.934.
For LADMNYVHCDL [EPHB2_Y742_R745C], the phosphorylation enrichment was 0.652.
QDDYSYPSRQM [LDLR_Y847_G844D] was tested, and the phosphorylation enrichment was 4.49.
SEKISYVYMKR [SSX7_Y48_L43S] showed a phosphorylation enrichment of 0.538.
In the case of TTSQLYDAVPI [PDPK1_Y9], the phosphorylation enrichment was 1.31.
SLGSPYGQPPR [PDLIM4_Y137] showed a phosphorylation enrichment of 0.486.
With IENKLCGMSDP [RET_Y1062_Y1062C] the phosphorylation enrichment was 0.625.
VNYGAYINNFK [GLB1_Y488_D491N] was tested, and the phosphorylation enrichment was 0.483.
